This is an account of results in paper PMC1262761, “Expression and cytosolic assembly of the S-layer fusion protein mSbsC-EGFP in eukaryotic cells” (Microbial Cell Factories, 2005).

The data set deals with the molecule itself. Nature of the data set: in vitro recrystallisation (self-assembly) seen by electron microscopy (REM, TEM); FPLC-purified mSbsC-EGFP, denatured in Gua-HCl, dialysed against dH2O over night; assembled structures negatively stained with 3% ammonium molybdate pH 7.2.

B1: mSbsC-EGFP fusion protein (mature S-layer protein SbsC, aa 31-1099, of Geobacillus stearothermophilus ATCC 12980 fused to EGFP), from E. coli (natural protein, UniProt O68840 31-1099, looked up)
chain: ATDVATVVSQAKAQMKEAYYTYSHTVTETGQFPDIKDVYAAYNKAKQAYANAVAVVNKAGGAKKDAYLADLQAIYETYVFKANPKSGEARVATYIDAYNYATKLDKMRQELKAAVDAKDLKKAEELYHKISYELKTRTVILDRVYGQSTRELLRSTFKADAQALRDRLIYDITVAMKAREAQDAVKAGNLDKAKAALDQVNQYVSKVTDAFKAELQKAAQDAKAAYEAALTPKVESVSAIDSTSFKVTFTKPVDKATAIPKNFSITLKGTETKLYPKSVEVSESGLTATVTLYDTLVDGKTYTVVTSGLKDTAGKEFETSTNEFTYNKPVPASITFNFNKLPEDSAVDLTKYVTVKDAAGNVIKSGFELEFTSSEKLTQGKFINTTGKKSVIVNATVKGTNVTTGNVILAVEDEKAAEVSELKLTKDNKEVVTLYANGNAFDKDGNQISSGTLTLTAKFKDQYGNELTGKVAGTDYTFESLNPEVLVVAPDGSVTPIVPGTALVKVKYGEVTKTIPVTVKANPVLETIAVDSTGVSVAKGQKATFKVTLKDQYGNKFTGNVNVTSDKTETATVSVSNSGIGQSEYTVTVNGVAEGSTTITIKSGTKEVKVPVNVVAGGPVANYQIKVLDDGKIDKSATESPANNDVQLKVYAVDANGNIVGDITNDVTITSEATDTNGVIVNASKSTANGDTVYVITDNGSKKVGKETLTVKLGTVTLGTVDVEVIDTTLKATVVTKKADLIELDAADNGDALAKLLANLDIKDQNGNPMVDSAATPNTNEKLQALKSVLSGIVSSDTSVIGSVSNVDNLKDDASISGLAVKKAGTVTLTLVFNEDSKIAPIAITVKAPAATQDGVTVTGLDLVPGVTGVGKTKFTATDKIKSGHKLYYAVDDSAVPAPAVGTTRNSTKFANEITVGTTEVAANAGQIITVIEVDSSDRVVGYKTFTVEAADLSVAADKTGFTATVTPTGGNQVTTGKTLLAVSDLANGHKLYAAAAGSSAAAAPVKGIAYTDTTVRTTYGTEVTSGTVEVDAQDGQHISIIEVDENGKVVGYKDYTITGIQIGTKSAS
notes: S-layer protein SbsC of Geobacillus stearothermophilus ATCC 12980, mature part, aa 31-1099 (without the 30 aa N-terminal secretion signal); an ATG initiation codon was introduced 5' of the reading frame by the primer; A Met from the introduced ATG precedes residue 31; A two-residue linker (Leu-Glu, from the XhoI site) stands between SbsC and the EGFP reading frame (720 bp, from the Clontech …)
For B1, the binding result was “binds”.
